Best fit- Bmax and ELISA A450 data for two substances are collected here from patent US20230203159A1.

Assay [1] concerns the target human CD3 receptor on T cell surface (Jurkat cells, human CD4 T cells) (human) (UniProt P07766). Nature of the assay: flow cytometry on Jurkat cells, one site saturation fit.
Assay [2] has as its target Human CD3 epsilon (CD3epsilon) protein (His Tag) (human) (UniProt P07766). As to the kind of experiment: ELISA, protein coated on plate.
Assay [3] deals with mouse CD3epsilon protein (mouse) (UniProt P22646). Nature of the assay: ELISA, protein coated on plate.
Assay [4] has as its target Cynomolgus Monkey CD3epsilon protein (Cynomolgus monkey) (UniProt Q95LI5). Nature of the assay: ELISA, protein coated on plate.

Chain of Human CD3 epsilon (CD3epsilon) protein (His Tag) (human) (P07766 23-126): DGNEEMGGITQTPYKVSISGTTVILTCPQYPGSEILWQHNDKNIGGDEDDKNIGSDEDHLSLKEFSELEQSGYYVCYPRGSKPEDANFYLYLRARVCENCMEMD
Chain of human CD3 receptor on T cell surface (Jurkat cells, human CD4 T cells) (human) (P07766 23-207): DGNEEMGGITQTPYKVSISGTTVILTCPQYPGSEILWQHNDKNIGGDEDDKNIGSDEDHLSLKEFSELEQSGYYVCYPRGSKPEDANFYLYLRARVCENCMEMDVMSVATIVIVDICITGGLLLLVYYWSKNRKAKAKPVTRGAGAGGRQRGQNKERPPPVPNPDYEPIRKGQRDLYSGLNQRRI
Chain of mouse CD3epsilon protein (mouse) (P22646 22-108 limits assumed): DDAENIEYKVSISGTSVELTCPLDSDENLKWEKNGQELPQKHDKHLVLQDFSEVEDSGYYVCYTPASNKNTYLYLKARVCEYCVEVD
Chain of Cynomolgus Monkey CD3epsilon protein (Cynomolgus monkey) (Q95LI5 22-117 limits assumed): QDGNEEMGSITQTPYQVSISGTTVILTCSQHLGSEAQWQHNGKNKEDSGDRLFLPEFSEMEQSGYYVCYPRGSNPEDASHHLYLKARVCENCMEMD

Benchmark antibody OKT3 gave a Best fit- Bmax in assay [1] of 9.41e-11.

Consider Negative Control, for which the figures for the ELISA A450 in assay [2], in assay [3] and in assay [4] were 0.046 A450, 0.179 A450 and 0.046 A450, respectively.
